Laboratory results reported in patent publication US20090162360A1 (Hoffmann-La Roche, published 2009).

B1: wildtype <IGF-1R> antibody (antibody, V domains shown)
VH: QVELVESGGGVVQPGRSQRLSCAASGFTFSSYGMHWVRQAPGKGLEWVAIIWFDGSSTYYADSVRGRFTISRDNSKNTLYLQMNSLRAEDTAVYFCARELGRRYFDLWGRGTLVSVSS
VL: EIVLTQSPATLSLSPGERATLSCRASQSVSSYLAWYQQKPGQAPRLLIYDASKRATGIPARFSGSGSGTDFTLTISSLEPEDFAVYYCQQRSKWPPWTFGQGTKVESKR
notes: Human IgG1/kappa antibody described in WO 2005/005635; also called <IGF-1R> wildtype antibody; original wildtype <IGF-1R> antibody
B2: monospecific, bivalent <ANGPT2> wildtype antibody (antibody, V domains shown)
VH: EVQLVQSGGGVVQPGRSLRLSCAASGFTFSSYGMHWVRQAPGKGLEWVSYISSSGSTIYYADSVKGRFTISRDNAKNSLYLQMNSLRAEDTAVYYCARDLLDYDILTGYGYWGQGTLVTVSS
VL: not shown
notes: Human IgG1/kappa antibody described in WO 2006/045049; also called wildtype <ANGPT2> antibody; <Ang-2> control antibody

Experiments:
[1] = target: T1, human ANGPT2 (R&D Systems) (human, UniProt O15123 19-496, limits assumed); assay: cellular FACS IGF-1R-ANGPT2 bridging assay on I24 cells with 2 µg/mL hANGPT2, detection <ANGPT2>mIgG1-Biotin + Streptavidin-PE
T1 construct: also called hANGPT2; Ang-2
T1 sequence (looked up): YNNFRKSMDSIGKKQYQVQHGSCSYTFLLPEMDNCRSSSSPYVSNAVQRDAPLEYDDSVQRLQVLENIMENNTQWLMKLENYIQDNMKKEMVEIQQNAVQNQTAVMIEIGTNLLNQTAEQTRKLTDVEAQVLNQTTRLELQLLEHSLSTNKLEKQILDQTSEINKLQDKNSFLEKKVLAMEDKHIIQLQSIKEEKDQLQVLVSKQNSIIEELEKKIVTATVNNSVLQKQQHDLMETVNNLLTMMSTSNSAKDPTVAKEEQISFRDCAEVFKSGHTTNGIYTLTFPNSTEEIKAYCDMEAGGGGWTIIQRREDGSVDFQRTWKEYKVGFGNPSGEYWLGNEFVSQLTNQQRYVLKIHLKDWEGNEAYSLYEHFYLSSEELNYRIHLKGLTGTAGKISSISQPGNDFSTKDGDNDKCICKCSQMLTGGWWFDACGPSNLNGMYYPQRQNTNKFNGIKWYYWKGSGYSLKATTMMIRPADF
Procedure: (§1) The assay principle is depicted in FIG. 10.
(§2) Briefly, 5×10E5 I24 cells per FACS tube were incubated with total purified antibody mix and incubated on ice for 1 h (titration 160 μg/ml mix). The respective purified antibodies wildtype <IGF-1R> and <ANGPT2> were applied to the I24 cells as controls. Unbound antibody was washed away with 4 ml ice cold PBS (Gibco)+2% FCS (Gibco), cells were centrifuged (5 min at 400 g) and bound bispecific antibody was detected with 50 μl 2 μg/mL human ANGPT2 (R&D Systems) for 1 h on ice. Subsequently, unbound ANGPT2 was washed away once or twice with 4 ml ice cold PBS (Gibco)+2% FCS (Gibco), cells were centrifuged (5 min at 400 g) and bound ANGPT2 was detected with 50 μl 5 μg/mL <ANGPT2>mIgG1-Biotin antibody (BAM0981, R&D Systems) for 45 min on ice; alternatively, cells were incubated with 50 μl 5 μg/mL mIgG1-Biotin-Isotype control (R&D Systems). Unbound detection antibody was washed away with 4 ml ice cold PBS (Gibco)+2% FCS (Gibco), cells were centrifuged (5 min at 400 g) and bound detection antibody was detected with 50 μl 1:400 Streptavidin-PE conjugate (Invitrogen/Zymed) for 45 min on ice protected from light. Unbound Streptavidin-PE conjugate was washed away with 4 ml ice cold PBS+2% FCS. […]

[2] = target: T2, recombinant human IGF-1R on I24 cells (human, UniProt P08069 31-1367); assay: as above
T2 construct: whole, on cells; also called IGF-1R in I24 cells; I24 IGF-1R expressing cells (NIH3T3 cells expressing recombinant human IGF-1R)
Procedure: as §1, §2

Row | Binder | binding result [1] | binding result [2]
1 | B1 | no binding | 
2 | B2 |  | no binding
